Results published in the Human Domainome abundance scans (Beltran et al. 2025).
± gives the uncertainty stated by the source.

B1: Zinc finger protein ZIC 2, residues 250 to 295; numbered along this chain, O95409 (parent)
chain: QCIKQELICKWIDPEQLSNPKKSCNKTFSTMHELVTHVSVEHVGGP
B2: Homeobox protein SIX3, residues 212 to 262; numbered along this chain, O95343 (parent)
chain: CFKERTRSLLREWYLQDPYPNPSKKRELAQATGLTPTQVGNWFKNRRQRDR

Variants of: B1
Assay: abundance fitness (aPCA) (normalised: wild type 0, dead -1); higher = more abundant; growth selection in yeast, the domain comes from the species named
Conditions: Homo sapiens

Abundance fitness of substitutions, site by site:
Q1: C -0.274 ± 0.23 | A 0.373 ± 0.31 | D 0.21 ± 0.17

Variants of: B2
Assay: as above
Conditions: Homo sapiens

Abundance fitness of substitutions, site by site:
Q48: H -0.042 ± 0.18 | R 0.397 ± 0.049 | W -0.117 ± 0.08 | C -0.147 ± 0.095 | L -0.225 ± 0.057 | D -0.37 ± 0.061 | A 0.028 ± 0.069 | Y -0.055 ± 0.13 | M -0.431 ± 0.077 | P -0.799 ± 0.24 | T -0.242 ± 0.082 | E -0.267 ± 0.12 | S -0.124 ± 0.051 | F -0.46 ± 0.18 | N -0.166 ± 0.12 | V -0.545 ± 0.086 | K 0.177 ± 0.087
R47: T -0.84 ± 0.056 | K -0.591 ± 0.13 | F -0.548 ± 0.14 | Y -0.945 ± 0.12 | P -0.532 ± 0.074 | D -0.654 ± 0.17 | S -0.723 ± 0.064 | Q -0.473 ± 0.052 | A -0.465 ± 0.059 | H -0.617 ± 0.092 | G -0.898 ± 0.081 | N -0.552 ± 0.11 | I -0.613 ± 0.093 | M -0.975 ± 0.11 | W -0.641 ± 0.14 | V -0.586 ± 0.051 | C -0.804 ± 0.13
W42: T -0.461 ± 0.21 | G -0.85 ± 0.098 | D -0.722 ± 0.29 | F -0.764 ± 0.3 | K -0.871 ± 0.32 | Y -0.398 ± 0.05 | H -0.702 ± 0.34 | P -1 ± 0.14 | E -0.893 ± 0.098 | R -0.933 ± 0.079 | V -0.986 ± 0.078 | S -1.06 ± 0.27 | Q -0.854 ± 0.083 | I -0.897 ± 0.42
R49: T -0.18 ± 0.082 | L -0.388 ± 0.057 | S -0.279 ± 0.083 | H -0.371 ± 0.22 | I -0.216 ± 0.14 | W -0.462 ± 0.07 | C -0.539 ± 0.1 | Y -0.074 ± 0.12 | V -0.153 ± 0.082 | N -0.221 ± 0.19 | A -0.222 ± 0.079 | E 0 ± 0.042 | G -0.373 ± 0.051 | P -0.844 ± 0.23 | M -0.247 ± 0.058 | Q 0.018 ± 0.089 | K 0.025 ± 0.073 | F -0.373 ± 0.16 | D -0.033 ± 0.11
F43: S -0.837 ± 0.073 | R -0.774 ± 0.05 | P -0.941 ± 0.14 | A -0.96 ± 0.22 | D -0.816 ± 0.35 | V -1 ± 0.092 | I -0.679 ± 0.47 | H -0.82 ± 0.28 | T -0.951 ± 0.14 | K -0.92 ± 0.16 | N -0.621 ± 0.24 | W -0.915 ± 0.055 | Q -0.861 ± 0.089 | Y -0.689 ± 0.086 | C -0.755 ± 0.096 | E -0.883 ± 0.16 | G -0.956 ± 0.11 | M -0.782 ± 0.18 | L -0.97 ± 0.15
D50: W -1.17 ± 0.4 | Q -0.276 ± 0.065 | G -0.609 ± 0.047 | A -0.579 ± 0.11 | S -0.491 ± 0.074 | N -0.747 ± 0.19 | T -0.582 ± 0.12 | C -0.678 ± 0.064 | R -1.08 ± 0.21 | M -0.799 ± 0.25 | Y -0.6 ± 0.17 | H -0.515 ± 0.14 | L -0.64 ± 0.057 | V -0.699 ± 0.095 | E 0.189 ± 0.1 | I -0.737 ± 0.11
N45: P -0.967 ± 0.23 | C -0.396 ± 0.069 | Y -0.725 ± 0.24 | I -0.429 ± 0.047 | L -0.28 ± 0.06 | E -0.192 ± 0.098 | W -0.655 ± 0.1 | K -0.368 ± 0.12 | Q -0.263 ± 0.052 | A -0.452 ± 0.1 | S -0.283 ± 0.045 | V -0.493 ± 0.1 | M -0.355 ± 0.1 | T -0.255 ± 0.074 | R -0.063 ± 0.05 | H -0.209 ± 0.14 | G -0.58 ± 0.073
K44: R -0.115 ± 0.044 | W -0.623 ± 0.21 | E -0.086 ± 0.079 | T -0.376 ± 0.15 | I -0.629 ± 0.16 | Y -0.496 ± 0.17 | Q 0.007 ± 0.095 | G -0.72 ± 0.1 | D -0.356 ± 0.054 | C -0.807 ± 0.24 | L -0.407 ± 0.074 | N 0.017 ± 0.11 | H -0.354 ± 0.071 | M -0.505 ± 0.2 | V -0.48 ± 0.048 | S -0.192 ± 0.065 | A -0.286 ± 0.044 | F -0.452 ± 0.1
R51: E -0.155 ± 0.21 | F -0.18 ± 0.33 | G -0.375 ± 0.076 | V -0.441 ± 0.18 | A -0.031 ± 0.11 | N -0.267 ± 0.26 | D 0.246 ± 0.16 | W -0.309 ± 0.14
R46: D -0.67 ± 0.072 | W -0.817 ± 0.14 | E -0.167 ± 0.13 | A -0.306 ± 0.091 | Q -0.045 ± 0.046 | H -0.269 ± 0.14 | P -0.611 ± 0.2 | S -0.326 ± 0.083 | V -0.635 ± 0.086 | K 0.144 ± 0.097 | T -0.117 ± 0.073 | F -0.63 ± 0.083 | L -0.531 ± 0.058 | Y -0.504 ± 0.14 | I -0.748 ± 0.25 | N -0.456 ± 0.24 | M -0.182 ± 0.061 | G -0.937 ± 0.058 | C -0.554 ± 0.16
